Experimental data from the supplement of paper PMC5998384.

Assays:
HeLa Kyoto [1] = assay: solubility change mitosis vs G1/S (difference of NP-40 vs SDS log2 ratios) (log2 ratio difference); higher = more soluble in mitosis
HeLa Kyoto [2] = assay: solubility in G1/S (NP-40 vs SDS abundance) (log2 ratio); higher = more soluble; conditions: cell cycle stage: G1/S
HeLa Kyoto [3] = assay: melting temperature (median over replicates), in situ; higher = more thermally stable
HeLa Kyoto [4] = assay: thermal stability score vs G1/S (z-score of summed log2 fold changes over temperatures); higher = more thermally stable than in G1/S
[5] = cell cycle stage: early G1 (4.5 h after nocodazole release)
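Throughout, for melting temperature (median over replicates), in situ: HeLa Kyoto cells synchronized by double thymidine or nocodazole block, proteins quantified by TMT10plex mass spectrometry, three independent biological replicates.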
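Throughout, for solubility change mitosis vs G1/S (difference of NP-40 vs SDS log2 ratios): synchronized HeLa Kyoto cells (double thymidine block for G1/S, nocodazole release for mitosis), protein amounts in NP-40 versus SDS lysates quantified by mass spectrometry, three biological replicates.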
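Throughout, for solubility in G1/S (NP-40 vs SDS abundance): HeLa Kyoto cells arrested at G1/S by double thymidine block, proteins quantified by TMT10plex mass spectrometry in mild NP-40 versus SDS extracts, three biological replicates.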
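Throughout, for thermal stability score vs G1/S (z-score of summed log2 fold changes over temperatures): synchronized HeLa Kyoto cells, proteins quantified by TMT10plex mass spectrometry, three biological replicates, mitosis taken 0.5 h after nocodazole release, G1/S directly after double thymidine block.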

Sequence	solubility change mitosis (log2) (HeLa Kyoto [1])	solubility in G1/S (log2) (HeLa Kyoto [2])	melting temperature (HeLa Kyoto [3]; cell cycle stage: G1/S) [°C]	melting temperature (HeLa Kyoto [3]; cell cycle stage: mitosis) [°C]	thermal stability score (HeLa Kyoto [4]; [5])	thermal stability score (HeLa Kyoto [4]; cell cycle stage: mitosis)
MVVFGYEAGTKPRDSGVVPVGTEEAPKVFKMAASMHGQPSPSLEDAKLRRPMVIEIIEKNFDYLRKEMTQNIYQMATFGTTAGFSGIFSNFLFRRCFKVKHDALKTYASLATLPFLSTVVTDKLFVIDALYSDNISKENCVFRSSLIGIVCGVFYPSSLAFTKNGRLATKYHTVPLPPKGRVLIHWMTLCQTQMKLMAIPLVFQIMFGILNGLYHYAVFEETLEKTIHEE [TMEM126B]	0.00498	-0.0998	55.9	53.5	0.469	-1.3
MAENTEGDLNSNLLHAPYHTGDPQLDTAIGQWLRWDKNPKTKEQIENLLRNGMNKELRDRLCCRMTFGTAGLRSAMGAGFCYINDLTVIQSTQGMYKYLERCFSDFKQRGFVVGYDTRGQVTSSCSSQRLAKLTAAVLLAKDVPVYLFSRYVPTPFVPYAVQKLKAVAGVMITASHNRKEDNGYKVYWETGAQITSPHDKEILKCIEECVEPWNGSWNDNLVDTSPLKRDPLQDICRRYMEDLKKICFYRELNSKTTLKFVHTSFHGVGHDYVQLAFKVFGFKPPIPVPEQKDPDPDFSTVKCPNPEEGESVLELSLRLAEKENARVVLATDPDADRLAAAELQENGCWKVFTGNELAALFGWWMFDCWKKNKSRNADVKNVYMLATTVSSKILKAIALKEGFHFEETLPGFKWIGSRIIDLLENGKEVLFAFEESIGFLCGTSVLDKDGVSAAVVVAEMASYLETMNITLKQQLVKVYEKYGYHISKTSYFLCYEPPTIKSIFERLRNFDSPKEYPKFCGTFAILHVRDVTTGYDSSQPNKKSVLPVSKNSQMITFTFQNGCVATLRTSGTEPKIKYYAEMCASPDQSDTALLEEELKKLIDALIENFLQPSKNGLIWRSV [PGM2L1]	-0.173	0.0482	53.4	54.2	0.325	-0.133
MVPRLLLRAWPRGPAVGPGAPSRPLSAGSGPGQYLQRSIVPTMHYQDSLPRLPIPKLEDTIRRYLSAQKPLLNDGQFRKTEQFCKSFENGIGKELHEQLVALDKQNKHTSYISGPWFDMYLSARDSVVLNFNPFMAFNPDPKSEYNDQLTRATNMTVSAIRFLKTLRAGLLEPEVFHLNPAKSDTITFKRLIRFVPSSLSWYGAYLVNAYPLDMSQYFRLFNSTRLPKPSRDELFTDDKARHLLVLRKGNFYIFDVLDQDGNIVSPSEIQAHLKYILSDSSPAPEFPLAYLTSENRDIWAELRQKLMSSGNEESLRKVDSAVFCLCLDDFPIKDLVHLSHNMLHGDGTNRWFDKSFNLIIAKDGSTAVHFEHSWGDGVAVLRFFNEVFKDSTQTPAVTPQSQPATTDSTVTVQKLNFELTDALKTGITAAKEKFDATMKTLTIDCVQFQRGGKEFLKKQKLSPDAVAQLAFQMAFLRQYGQTVATYESCSTAAFKHGRTETIRPASVYTKRCSEAFVREPSRHSAGELQQMMVECSKYHGQLTKEAAMGQGFDRHLFALRHLAAAKGIILPELYLDPAYGQINHNVLSTSTLSSPAVNLGGFAPVVSDGFGVGYAVHDNWIGCNVSSYPGRNAREFLQCVEKALEDMFDALEGKSIKS [CPT2]	-0.135	0.115	50	50	-0.368	0.841
MSQWYELQQLDSKFLEQVHQLYDDSFPMEIRQYLAQWLEKQDWEHAANDVSFATIRFHDLLSQLDDQYSRFSLENNFLLQHNIRKSKRNLQDNFQEDPIQMSMIIYSCLKEERKILENAQRFNQAQSGNIQSTVMLDKQKELDSKVRNVKDKVMCIEHEIKSLEDLQDEYDFKCKTLQNREHETNGVAKSDQKQEQLLLKKMYLMLDNKRKEVVHKIIELLNVTELTQNALINDELVEWKRRQQSACIGGPPNACLDQLQNWFTIVAESLQQVRQQLKKLEELEQKYTYEHDPITKNKQVLWDRTFSLFQQLIQSSFVVERQPCMPTHPQRPLVLKTGVQFTVKLRLLVKLQELNYNLKVKVLFDKDVNERNTVKGFRKFNILGTHTKVMNMEESTNGSLAAEFRHLQLKEQKNAGTRTNEGPLIVTEELHSLSFETQLCQPGLVIDLETTSLPVVVISNVSQLPSGWASILWYNMLVAEPRNLSFFLTPPCARWAQLSEVLSWQFSSVTKRGLNVDQLNMLGEKLLGPNASPDGLIPWTRFCKENINDKNFPFWLWIESILELIKKHLLPLWNDGCIMGFISKERERALLKDQQPGTFLLRFSESSREGAITFTWVERSQNGGEPDFHAVEPYTKKELSAVTFPDIIRNYKVMAAENIPENPLKYLYPNIDKDHAFGKYYSRPKEAPEPMELDGPKGTGYIKTELISVSEVHPSRLQTTDNLLPMSPEEFDEVSRIVGSVEFDSMMNTV [STAT1]	-0.17	0.104	47.7	48.5	1.15	3.11
MTTSTLQKAIDLVTKATEEDKAKNYEEALRLYQHAVEYFLHAIKYEAHSDKAKESIRAKCVQYLDRAEKLKDYLRSKEKHGKKPVKENQSEGKGSDSDSEGDNPEKKKLQEQLMGAVVMEKPNIRWNDVAGLEGAKEALKEAVILPIKFPHLFTGKRTPWRGILLFGPPGTGKSYLAKAVATEANNSTFFSVSSSDLMSKWLGESEKLVKNLFELARQHKPSIIFIDEVDSLCGSRNENESEAARRIKTEFLVQMQGVGNNNDGTLVLGATNIPWVLDSAIRRRFEKRIYIPLPEEAARAQMFRLHLGSTPHNLTDANIHELARKTEGYSGADISIIVRDSLMQPVRKVQSATHFKKVCGPSRTNPSMMIDDLLTPCSPGDPGAMEMTWMDVPGDKLLEPVVCMSDMLRSLATTRPTVNADDLLKVKKFSEDFGQES [VPS4A]	-0.128	0.393	48.6	49.7	1.11	1.47
MSSSGLNSEKVAALIQKLNSDPQFVLAQNVGTTHDLLDICLKRATVQRAQHVFQHAVPQEGKPITNQKSSGRCWIFSCLNVMRLPFMKKLNIEEFEFSQSYLFFWDKVERCYFFLSAFVDTAQRKEPEDGRLVQFLLMNPANDGGQWDMLVNIVEKYGVIPKKCFPESYTTEATRRMNDILNHKMREFCIRLRNLVHSGATKGEISATQDVMMEEIFRVVCICLGNPPETFTWEYRDKDKNYQKIGPITPLEFYREHVKPLFNMEDKICLVNDPRPQHKYNKLYTVEYLSNMVGGRKTLYNNQPIDFLKKMVAASIKDGEAVWFGCDVGKHFNSKLGLSDMNLYDHELVFGVSLKNMNKAERLTFGESLMTHAMTFTAVSEKDDQDGAFTKWRVENSWGEDHGHKGYLCMTDEWFSEYVYEVVVDRKHVPEEVLAVLEQEPIILPAWDPMGALAE [BLMH]	-0.251	-0.128	58.1	59	-1.55	-0.29
MAYQSLRLEYLQIPPVSRAYTTACVLTTAAVQLELITPFQLYFNPELIFKHFQIWRLITNFLFFGPVGFNFLFNMIFLYRYCRMLEEGSFRGRTADFVFMFLFGGFLMTLFGLFVSLVFLGQAFTIMLVYVWSRRNPYVRMNFFGLLNFQAPFLPWVLMGFSLLLGNSIIVDLLGIAVGHIYFFLEDVFPNQPGGIRILKTPSILKAIFDTPDEDPNYNPLPEERPGGFAWGEGQRLGG [DERL2]	-0.0878	-0.0605	54.4		-0.206	-1.33
MATSPQKSPSVPKSPTPKSPPSRKKDDSFLGKLGGTLARRKKAKEVSELQEEGMNAINLPLSPIPFELDPEDTMLEENEVRTMVDPNSRSDPKLQELMKVLIDWINDVLVGERIIVKDLAEDLYDGQVLQKLFEKLESEKLNVAEVTQSEIAQKQKLQTVLEKINETLKLPPRSIKWNVDSVHAKSLVAILHLLVALSQYFRAPIRLPDHVSIQVVVVQKREGILQSRQIQEEITGNTEALSGRHERDAFDTLFDHAPDKLNVVKKTLITFVNKHLNKLNLEVTELETQFADGVYLVLLMGLLEGYFVPLHSFFLTPDSFEQKVLNVSFAFELMQDGGLEKPKPRPEDIVNCDLKSTLRVLYNLFTKYRNVE [PARVA]	-0.0689	0.479	51	50.8	1.2	1.23
MADAWEEIRRLAADFQRAQFAEATQRLSERNCIEIVNKLIAQKQLEVVHTLDGKEYITPAQISKEMRDELHVRGGRVNIVDLQQVINVDLIHIENRIGDIIKSEKHVQLVLGQLIDENYLDRLAEEVNDKLQESGQVTISELCKTYDLPGNFLTQALTQRLGRIISGHIDLDNRGVIFTEAFVARHKARIRGLFSAITRPTAVNSLISKYGFQEQLLYSVLEELVNSGRLRGTVVGGRQDKAVFVPDIYSRTQSTWVDSFFRQNGYLEFDALSRLGIPDAVSYIKKRYKTTQLLFLKAACVGQGLVDQVEASVEEAISSGTWVDIAPLLPTSLSVEDAAILLQQVMRAFSKQASTVVFSDTVVVSEKFINDCTELFRELMHQKAEKEMKNNPVHLITEEDLKQISTLESVSTSKKDKKDERRRKATEGSGSMRGGGGGNAREYKIKKVKKKGRKDDDSDDESQSSHTGKKKPEISFMFQDEIEDFLRKHIQDAPEEFISELAEYLIKPLNKTYLEVVRSVFMSSTTSASGTGRKRTIKDLQEEVSNLYNNIRLFEKGMKFFADDTQAALTKHLLKSVCTDITNLIFNFLASDLMMAVDDPAAITSEIRKKILSKLSEETKVALTKLHNSLNEKSIEDFISCLDSAAEACDIMVKRGDKKRERQILFQHRQALAEQLKVTEDPALILHLTSVLLFQFSTHSMLHAPGRCVPQIIAFLNSKIPEDQHALLVKYQGLVVKQLVSQSKKTGQGDYPLNNELDKEQEDVASTTRKELQELSSSIKDLVLKSRKSSVTEE [UFL1]	-0.0952	-0.013	50	49.8	1.14	2.59
MAGNFDSEERSSWYWGRLSRQEAVALLQGQRHGVFLVRDSSTSPGDYVLSVSENSRVSHYIINSSGPRPPVPPSPAQPPPGVSPSRLRIGDQEFDSLPALLEFYKIHYLDTTTLIEPVSRSRQGSGVILRQEEAEYVRALFDFNGNDEEDLPFKKGDILRIRDKPEEQWWNAEDSEGKRGMIPVPYVEKYRPASASVSALIGGNQEGSHPQPLGGPEPGPYAQPSVNTPLPNLQNGPIYARVIQKRVPNAYDKTALALEVGELVKVTKINVSGQWEGECNGKRGHFPFTHVRLLDQQNPDEDFS [CRK]	-0.104	0.342	50.6	51.5	-0.547	-1.21
MAQYKGAASEAGRAMHLMKKREKQREQMEQMKQRIAEENIMKSNIDKKFSAHYDAVEAELKSSTVGLVTLNDMKAKQEALVKEREKQLAKKEQSKELQMKLEKLREKERKKEAKRKISSLSFTLEEEEEGGEEEEEAAMYEEEMEREEITTKKRKLGKNPDVDTSFLPDRDREEEENRLREELRQEWEAKQEKIKSEEIEITFSYWDGSGHRRTVKMRKGNTMQQFLQKALEILRKDFSELRSAGVEQLMYIKEDLIIPHHHSFYDFIVTKARGKSGPLFNFDVHDDVRLLSDATVEKDESHAGKVVLRSWYEKNKHIFPASRWEPYDPEKKWDKYTIR [FAM50A]	-0.0697	0.0519	48.4	50.3	1.03	2.04
